Assay results published in US20100022456A1 (Novo Nordisk, published 2010).

T1: Ser-hPRLR(1-210) (human, UniProt P16471 25-234)
T1 construct: range 1-210; Amine-coupled to a CM5 chip in the SPR assay; also called soluble form of the receptor; PRL receptor
T1 sequence: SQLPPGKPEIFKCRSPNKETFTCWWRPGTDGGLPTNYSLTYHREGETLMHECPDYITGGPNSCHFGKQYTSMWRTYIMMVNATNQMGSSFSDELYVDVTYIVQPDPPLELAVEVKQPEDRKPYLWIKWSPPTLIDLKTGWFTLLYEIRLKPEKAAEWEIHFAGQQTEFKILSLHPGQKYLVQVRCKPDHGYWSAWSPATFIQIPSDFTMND

B1: Disulfide bridged PRL 12-199 Q12S E128C dimer (ligand)
chain: SVTLRDLFDRAVVLSHYIHNLSSEMFSEFDKRYTHGRGFITKAINSCHTSSLATPEDKEQAQQMNQKDFLSLIVSILRSWNEPLYHLVTEVRGMQEAPEAILSKAVEIEEQTKRLLCGMELIVSQVHPETKENEIYPVWSGLPSLQMADEESRLSAYYNLLHCLRRDSHKIDNYLKLLKCRIIHNNNC
modifications: intermolecular disulfide bridge between Cys 128 of the two monomers
notes: also called PRL dimer 1; 0033
B2: Disulfide bridged PRL 12-199 Q12S S61A E128C dimer (ligand)
chain: SVTLRDLFDRAVVLSHYIHNLSSEMFSEFDKRYTHGRGFITKAINSCHTASLATPEDKEQAQQMNQKDFLSLIVSILRSWNEPLYHLVTEVRGMQEAPEAILSKAVEIEEQTKRLLCGMELIVSQVHPETKENEIYPVWSGLPSLQMADEESRLSAYYNLLHCLRRDSHKIDNYLKLLKCRIIHNNNC
modifications: intermolecular disulfide bridge between Cys 128 of the two monomers
B3: PRL(12-199) Q12S G129R (ligand)
chain: SVTLRDLFDRAVVLSHYIHNLSSEMFSEFDKRYTHGRGFITKAINSCHTSSLATPEDKEQAQQMNQKDFLSLIVSILRSWNEPLYHLVTEVRGMQEAPEAILSKAVEIEEQTKRLLERMELIVSQVHPETKENEIYPVWSGLPSLQMADEESRLSAYYNLLHCLRRDSHKIDNYLKLLKCRIIHNNNC
notes: Monomeric prolactin receptor antagonist analogue; also called PRL G129R analog
B4: Disulfide bridged PRL 12-199 Q12S R125C dimer (ligand)
chain: SVTLRDLFDRAVVLSHYIHNLSSEMFSEFDKRYTHGRGFITKAINSCHTSSLATPEDKEQAQQMNQKDFLSLIVSILRSWNEPLYHLVTEVRGMQEAPEAILSKAVEIEEQTKCLLEGMELIVSQVHPETKENEIYPVWSGLPSLQMADEESRLSAYYNLLHCLRRDSHKIDNYLKLLKCRIIHNNNC
modifications: intermolecular disulfide bridge between Cys 125 of the two monomers

target: T1, Ser-hPRLR(1-210); assay: SPR (Biacore T100), receptor amine-coupled to CM5 chip, ligand injected
Protocol: The soluble form of the receptor (10 μg/ml in 10 mM sodium acetate, pH 4.0) was injected into a Biacore T100 instrument and coupled to a CM5 sensor chip by amine coupling chemistry. The immobilized level was about 500 RUs of coupled receptor. […] Regeneration was accomplished with 4.5 M MgCl₂ for 90 sec with a flow rate of 30 μl/min between runs.

Q: With B1 as the binder, how does the Kd read?
A: The Kd was 6 nM.

Q: Which Kd does the source give for B2 here?
A: Its Kd is 3 nM.

Q: For B3, which Kd is on record?
A: The Kd was 30 nM.

Q: For B4, which Kd is on record?
A: The Kd was 20 nM.
